The labels stand for the following.
T1: Human recombinant caspase-2 (human, UniProt P42575 170-452, limits assumed)
T1 sequence (looked up): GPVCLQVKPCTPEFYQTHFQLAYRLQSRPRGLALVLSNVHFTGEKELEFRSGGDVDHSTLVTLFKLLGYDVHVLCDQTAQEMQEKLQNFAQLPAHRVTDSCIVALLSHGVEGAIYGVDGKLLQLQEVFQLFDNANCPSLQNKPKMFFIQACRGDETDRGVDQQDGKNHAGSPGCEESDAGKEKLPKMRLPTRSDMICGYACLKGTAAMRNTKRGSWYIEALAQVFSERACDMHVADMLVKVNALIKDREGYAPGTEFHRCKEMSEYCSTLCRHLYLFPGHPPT

T2: Human recombinant caspase-6 (human, UniProt P55212 24-293, limits assumed)
T2 sequence (looked up): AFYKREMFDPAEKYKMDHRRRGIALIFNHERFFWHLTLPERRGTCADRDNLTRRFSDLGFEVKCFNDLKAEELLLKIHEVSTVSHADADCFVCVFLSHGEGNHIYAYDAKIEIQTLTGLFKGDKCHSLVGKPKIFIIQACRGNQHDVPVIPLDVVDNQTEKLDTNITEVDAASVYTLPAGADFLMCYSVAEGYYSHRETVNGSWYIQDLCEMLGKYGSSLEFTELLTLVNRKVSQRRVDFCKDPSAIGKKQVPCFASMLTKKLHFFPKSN

B1: Ac-FDESD-cho (peptide)
peptide: Ac-FDESD-aldehyde
SMILES: CC(=O)N[C@@H](Cc1ccccc1)C(=O)N[C@@H](CC(=O)O)C(=O)N[C@@H](CCC(=O)O)C(=O)N[C@@H](CO)C(=O)N[C@H](C=O)CC(=O)O
B2: Ac-VDESD-cho (peptide)
peptide: Ac-VDESD-aldehyde
SMILES: CC(=O)N[C@H](C(=O)N[C@@H](CC(=O)O)C(=O)N[C@@H](CCC(=O)O)C(=O)N[C@@H](CO)C(=O)N[C@H](C=O)CC(=O)O)C(C)C
B3: Ac-VDEAD-cho (peptide)
peptide: Ac-VDEAD-aldehyde
SMILES: CC(=O)N[C@H](C(=O)N[C@@H](CC(=O)O)C(=O)N[C@@H](CCC(=O)O)C(=O)N[C@@H](C)C(=O)N[C@H](C=O)CC(=O)O)C(C)C
B4: Ac-LDEGD-cho (peptide)
peptide: Ac-LDEGD-aldehyde
SMILES: CC(=O)N[C@@H](CC(C)C)C(=O)N[C@@H](CC(=O)O)C(=O)N[C@@H](CCC(=O)O)C(=O)NCC(=O)N[C@H](C=O)CC(=O)O
B5: Ac-LDESD-cho (peptide)
peptide: Ac-LDESD-aldehyde
SMILES: CC(=O)N[C@@H](CC(C)C)C(=O)N[C@@H](CC(=O)O)C(=O)N[C@@H](CCC(=O)O)C(=O)N[C@@H](CO)C(=O)N[C@H](C=O)CC(=O)O
B6: Ac-LDEAD-cho (peptide)
peptide: Ac-LDEAD-aldehyde
SMILES: CC(=O)N[C@@H](CC(C)C)C(=O)N[C@@H](CC(=O)O)C(=O)N[C@@H](CCC(=O)O)C(=O)N[C@@H](C)C(=O)N[C@H](C=O)CC(=O)O
B7: Ac-LDEKD-cho (peptide)
peptide: Ac-LDEKD-aldehyde
SMILES: CC(=O)N[C@@H](CC(C)C)C(=O)N[C@@H](CC(=O)O)C(=O)N[C@@H](CCC(=O)O)C(=O)N[C@@H](CCCCN)C(=O)N[C@H](C=O)CC(=O)O

Experimental findings from patent publication US20090042805A1 (CHIESI FARMACEUTICI S P A, published 2009) are described below.

* marks the point of attachment. Quinaldoyl = O=C(c1ccc2ccccc2n1)*

The first assay has as its target T1, Human recombinant caspase-2. The assay is described as follows: cell-based or functional assay.
As to B1, the “IC50 (nM), inhibition of Ac-VDVAD-AMC cleavage by human recombinant caspase-2” value (from here on “IC50 (nM), inhibition”) was 800 nM. Same read-out and setting: next, B2: 175 nM. The same measure, in the same setting: as for B3, the figure is 85 nM.

Regarding B4, the “IC50 (nM), inhibition” value came to 430 nM. The same measure, in the same setting: next, Ac-VDEGD-aldehyde [VDEGD pentapeptidic-based inhibitor]: 260 nM; B5: 300 nM.

For the molecule B6, the “IC50 (nM), inhibition” value turned out to be 85 nM.

Ac-VDVAD-aldehyde [Ac-VDVAD-cho]: the “IC50 (nM), inhibition” value was found to be 75 nM. Turning to B7, the “IC50 (nM), inhibition” value is 300 nM.

The next assay has the same target. As to the kind of experiment: cell-based or functional assay. This is another data set of the same source.
With Quinaldoyl-VDVAD-{CH2O(2,6-difluorophenyl)} [Qco-VDVAD-CH2O(2,6-difluorophenyl)], the “IC50, inhibition of caspase-2” value came out at 80 nM.

Another assay has as its target T2, Human recombinant caspase-6. The assay is described as follows: cell-based or functional assay.
For B6, the “IC50, inhibition of Ac-VEID-AMC cleavage by human recombinant caspase-6” value is roughly 2000 nM.
